31 molecules from patent US20260055182A1 (CIS BIOPHARMA, published 2026) can be followed below.

The labels stand for the following.
B1: CE7-variant1 (antibody, V domains shown)
VH: QVQLVQSGAEVKKPGASVKVSCKASGYTFTGYWMHWVRQAPGQGLEWIGEINPSNGRTNYNERFKSRVTLTVDKSISTAYMELSRLRSDDTAVYFCARDYYGTSYNFDYWGQGTLVTVSS
VL: DIQMTQSPSSLSASVGDRVTITCKANEDINNRLAWYQQKPGKAPKLLISGATNLVTGVPSRFSGSGSGKDYTLTISSLQPEDFATYYCQQYWSTPFTFGQGTKLEIKR
notes: Human IgG1 kappa, L234A L235A P331S; also called CE7-12-VHA-1NL1-VLA; humanized variant 1
B2: CE7-variant5 (antibody, V domains shown)
VH: B1 VH
VL: EIVMTQSPATLSVSPGERATLSCKANEDINNRLAWYQQKPGQAPRLLISGATNLVTGIPARFSGSGSGKEYTLTISSLQSEDFAVYYCQQYWSTPFTFGQGTKLEIKR
notes: Human IgG1 kappa, L234A L235A P331S; also called CE7-12-VHA-315-VLA; humanized variant 5
B3: CE7-variant13 (antibody, V domains shown)
VH: QVQLQQWGAGLLKPSETLSLTCAAYGYTFTGYWMHWIRQPPGKGLEWIGEINPSNGRTNYNERLKSRVTLSVDKSKNQASLKLSSVTAADTAVYFCARDYYGTSYNFDYWGQGTLVTVSS
VL: B1 VL
notes: Human IgG1 kappa, L234A L235A P331S; also called CE7-434-VHA-1NL1-VLA; humanized variant 13
B4: CE7-variant9 (antibody, V domains shown)
VH: B1 VH with K65Q, S66G, F95Y
VL: B1 VL with F83I
notes: Human IgG1 kappa, L234A L235A P331S; also called CE7-12-VHB-133-VLA; humanized variant 9
B5: CE7-variant14 (antibody, V domains shown)
VH: B3 VH
VL: B1 VL with K24R
notes: Human IgG1 kappa, L234A L235A P331S; also called CE7-434-VHA-1NL1-VLB; humanized variant 14
B6: CE7-variant8 (antibody, V domains shown)
VH: B1 VH with K65Q, S66G, F95Y
VL: B1 VL with K24R
notes: Human IgG1 kappa, L234A L235A P331S; also called CE7-12-VHB-1NL1-VLB; humanized variant 8
B7: CE7-variant4 (antibody)
heavy: QVQLVQSGAEVKKPGASVKVSCKASGYTFTGYWMHWVRQAPGQGLEWIGEINPSNGRTNYNERFKSRVTLTVDKSISTAYMELSRLRSDDTAVYFCARDYYGTSYNFDYWGQGTLVTVSSASTKGPSVFPLAPSSKSTSGGTAALGCLVKDYFPEPVTVSWNSGALTSGVHTFPAVLQSSGLYSLSSVVTVPSSSLGTQTYICNVNHKPSNTKVDKKVEPKSCDKTHTCPPCPAPEAAGGPSVFLFPPKPKDTLMISRTPEVTCVVVDVSHEDPEVKFNWYVDGVEVHNAKTKPREEQYNSTYRVVSVLTVLHQDWLNGKEYKCKVSNKALPASIEKTISKAKGQPREPQVYTLPPSREEMTKNQVSLTCLVKGFYPSDIAVEWESNGQPENNYKTTPPVLDSDGSFFLYSKLTVDKSRWQQGNVFSCSVMHEALHNHYTQKSLSLSPGK
light: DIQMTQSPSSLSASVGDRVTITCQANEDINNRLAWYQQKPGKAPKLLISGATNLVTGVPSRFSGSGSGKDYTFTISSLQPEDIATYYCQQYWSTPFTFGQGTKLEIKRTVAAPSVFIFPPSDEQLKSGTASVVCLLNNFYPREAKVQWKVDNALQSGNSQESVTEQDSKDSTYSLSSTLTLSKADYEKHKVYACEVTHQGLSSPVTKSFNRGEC
notes: Human IgG1 kappa, L234A L235A P331S; also called CE7-12-VHA-133-VLB; humanized variant 4
B8: CE7-variant6 (antibody, V domains shown)
VH: B1 VH
VL: B2 VL with K24R, Y71F
notes: Human IgG1 kappa, L234A L235A P331S; also called CE7-12-VHA-315-VLB; humanized variant 6
B9: CE7-variant11 (antibody, V domains shown)
VH: B1 VH with K65Q, S66G, F95Y
VL: B2 VL
notes: Human IgG1 kappa, L234A L235A P331S; also called CE7-12-VHB-315-VLA; humanized variant 11
B10: CE7-variant20 (antibody, V domains shown)
VH: B1 VH with K65Q, S66G, F95Y
VL: B1 VL with K24R, N26S, E27Q, D28G, T52S, T56S
notes: CE7-1-2-VHB + CE7-1-NL1-VLD; human IgG1 kappa, L234A L235A P331S N297A (aglycosylated); also called humanized variant 20
B11: CE7-variant10 (antibody, V domains shown)
VH: B1 VH with K65Q, S66G, F95Y
VL: B1 VL with K24Q, L73F, F83I
notes: Human IgG1 kappa, L234A L235A P331S; also called CE7-12-VHB-133-VLB; humanized variant 10
B12: CE7-variant19 (antibody, V domains shown)
VH: B1 VH with K65Q, S66G, F95Y
VL: B1 VL with K24R, T52S, T56S
notes: CE7-1-2-VHB + CE7-1-NL1-VLC; human IgG1 kappa, L234A L235A P331S N297A (aglycosylated); also called humanized variant 19
B13: CE7-variant23 (antibody, V domains shown)
VH: B1 VH with R63K, K65Q, S66G, F95Y
VL: B1 VL with K24R, T52S, T56S
notes: CE7-1-2-VHC + CE7-1-NL1-VLC; human IgG1 kappa, L234A L235A P331S N297A (aglycosylated); also called humanized variant 23
B14: CE7-variant24 (antibody, V domains shown)
VH: B1 VH with R63K, K65Q, S66G, F95Y
VL: B1 VL with K24R, N26S, E27Q, D28G, T52S, T56S
notes: CE7-1-2-VHC + CE7-1-NL1-VLD; human IgG1 kappa, L234A L235A P331S N297A (aglycosylated); also called humanized variant 24
B15: CE7-variant15 (antibody, V domains shown)
VH: B3 VH
VL: B1 VL with F83I
notes: Human IgG1 kappa, L234A L235A P331S; also called CE7-434-VHA-133-VLA; humanized variant 15
B16: CE7-variant25 (antibody, V domains shown)
VH: B1 VH with I48M, R63K, K65Q, S66G, F95Y
VL: B1 VL
notes: CE7-1-2-VHD + CE7-1-NL1-VLA; human IgG1 kappa, L234A L235A P331S N297A (aglycosylated); also called humanized variant 25
B17: CE7-variant12 (antibody, V domains shown)
VH: B1 VH with K65Q, S66G, F95Y
VL: B2 VL with K24R, Y71F
notes: Human IgG1 kappa, L234A L235A P331S; also called CE7-12-VHB-315-VLB; humanized variant 12
B18: CE7-variant22 (antibody, V domains shown)
VH: B1 VH with R63K, K65Q, S66G, F95Y
VL: B1 VL with K24R
notes: CE7-1-2-VHC + CE7-1-NL1-VLB; human IgG1 kappa, L234A L235A P331S N297A (aglycosylated); also called humanized variant 22
B19: CE7-variant16 (antibody, V domains shown)
VH: B3 VH
VL: B1 VL with K24Q, L73F, F83I
notes: Human IgG1 kappa, L234A L235A P331S; also called CE7-434-VHA-133-VLB; humanized variant 16
B20: CE7-variant21 (antibody, V domains shown)
VH: B1 VH with R63K, K65Q, S66G, F95Y
VL: B1 VL
notes: CE7-1-2-VHC + CE7-1-NL1-VLA; human IgG1 kappa, L234A L235A P331S N297A (aglycosylated); also called humanized variant 21
B21: CE7-variant2 (antibody, V domains shown)
VH: B1 VH
VL: B1 VL with K24R
notes: Human IgG1 kappa, L234A L235A P331S; also called CE7-12-VHA-1NL1-VLB; humanized variant 2
B22: CE7-variant18 (antibody)
heavy: QVQLQQWGAGLLKPSETLSLTCAAYGYTFTGYWMHWIRQPPGKGLEWIGEINPSNGRTNYNERLKSRVTLSVDKSKNQASLKLSSVTAADTAVYFCARDYYGTSYNFDYWGQGTLVTVSSASTKGPSVFPLAPSSKSTSGGTAALGCLVKDYFPEPVTVSWNSGALTSGVHTFPAVLQSSGLYSLSSVVTVPSSSLGTQTYICNVNHKPSNTKVDKKVEPKSCDKTHTCPPCPAPEAAGGPSVFLFPPKPKDTLMISRTPEVTCVVVDVSHEDPEVKFNWYVDGVEVHNAKTKPREEQYNSTYRVVSVLTVLHQDWLNGKEYKCKVSNKALPASIEKTISKAKGQPREPQVYTLPPSREEMTKNQVSLTCLVKGFYPSDIAVEWESNGQPENNYKTTPPVLDSDGSFFLYSKLTVDKSRWQQGNVFSCSVMHEALHNHYTQKSLSLSPGK
light: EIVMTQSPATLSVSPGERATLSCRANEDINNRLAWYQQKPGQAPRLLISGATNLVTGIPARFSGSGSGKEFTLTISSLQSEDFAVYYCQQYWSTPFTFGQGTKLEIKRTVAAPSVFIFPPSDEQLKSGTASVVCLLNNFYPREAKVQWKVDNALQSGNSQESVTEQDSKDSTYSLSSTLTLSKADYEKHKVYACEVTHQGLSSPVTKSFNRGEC
notes: Human IgG1 kappa, L234A L235A P331S; also called CE7-434-VHA-315-VLB; humanized variant 18
B23: CE7-variant17 (antibody, V domains shown)
VH: B3 VH
VL: B2 VL
notes: Human IgG1 kappa, L234A L235A P331S; also called CE7-434-VHA-315-VLA; humanized variant 17
B24: LV1 (antibody, V domains shown)
VH: QVQLQQPGAELVKPGASVKLSCKASGYTFTGYYMHWVKQRPGHGLEWIGEINPSNGRTNYNERFKSKATLTVDKSSTTAFMQLSGLTSEDSAVYFCARDYYGTSYNFDYWGQGTTLTVSS
VL: DIQMTQSSSSFSVSLGDRVTITCKANEDINNRLAWYQQTPGNSPRLLISGATNLVTGVPSRFSGSGSGKDYTLTITSLQAEDFATYYCQQYWSTPFTFGSGTELEIKR
notes: CE7-VH-chimeric-WH33Y + CE7-VL-chimeric; chimeric CE7, human IgG1 kappa, L234A L235A P331S N297A; also called liability variant 1
B25: LV7 (antibody, V domains shown)
VH: B24 VH with Y33W
VL: B24 VL with W92Y
notes: CE7-VH-chimeric + CE7-VL-chimeric-WL92Y; chimeric CE7, human IgG1 kappa, L234A L235A P331S N297A; also called liability variant 7
B26: LV6 (antibody, V domains shown)
VH: B24 VH with Y33W
VL: B24 VL with N31A
notes: CE7-VH-chimeric + CE7-VL-chimeric-NL31A; chimeric CE7, human IgG1 kappa, L234A L235A P331S N297A; also called liability variant 6
B27: LV2 (antibody, V domains shown)
VH: B24 VH with Y33F
VL: B24 VL
notes: CE7-VH-chimeric-WH33F + CE7-VL-chimeric; chimeric CE7, human IgG1 kappa, L234A L235A P331S N297A; also called liability variant 2
B28: LV8 (antibody, V domains shown)
VH: B24 VH with Y33W
VL: B24 VL with W92F
notes: CE7-VH-chimeric + CE7-VL-chimeric-WL92F; chimeric CE7, human IgG1 kappa, L234A L235A P331S N297A; also called liability variant 8
B29: LV5 (antibody, V domains shown)
VH: B24 VH with Y33W
VL: B24 VL with N31L
notes: CE7-VH-chimeric + CE7-VL-chimeric-NL31L; chimeric CE7, human IgG1 kappa, L234A L235A P331S N297A; also called liability variant 5
B30: LV3 (antibody, V domains shown)
VH: B24 VH with Y33L
VL: B24 VL
notes: CE7-VH-chimeric-WH33L + CE7-VL-chimeric; chimeric CE7, human IgG1 kappa, L234A L235A P331S N297A; also called liability variant 3
B31: LV4 (antibody, V domains shown)
VH: B24 VH with Y33W, G56A
VL: B24 VL
notes: CE7-VH-chimeric-GH55A + CE7-VL-chimeric; chimeric CE7, human IgG1 kappa, L234A L235A P331S N297A; also called liability variant 4

Where a chain is given by its changes, count along the chain named. Numbers in names are those of the source.

The target of the test is T1, L1-CAM recombinant protein (His Tag), human (human, UniProt P32004 20-1120).
T1 construct: Bought protein; also called CD171; human L1-CAM; not shown: His tag
T1 sequence (P32004 20-1120 limits assumed): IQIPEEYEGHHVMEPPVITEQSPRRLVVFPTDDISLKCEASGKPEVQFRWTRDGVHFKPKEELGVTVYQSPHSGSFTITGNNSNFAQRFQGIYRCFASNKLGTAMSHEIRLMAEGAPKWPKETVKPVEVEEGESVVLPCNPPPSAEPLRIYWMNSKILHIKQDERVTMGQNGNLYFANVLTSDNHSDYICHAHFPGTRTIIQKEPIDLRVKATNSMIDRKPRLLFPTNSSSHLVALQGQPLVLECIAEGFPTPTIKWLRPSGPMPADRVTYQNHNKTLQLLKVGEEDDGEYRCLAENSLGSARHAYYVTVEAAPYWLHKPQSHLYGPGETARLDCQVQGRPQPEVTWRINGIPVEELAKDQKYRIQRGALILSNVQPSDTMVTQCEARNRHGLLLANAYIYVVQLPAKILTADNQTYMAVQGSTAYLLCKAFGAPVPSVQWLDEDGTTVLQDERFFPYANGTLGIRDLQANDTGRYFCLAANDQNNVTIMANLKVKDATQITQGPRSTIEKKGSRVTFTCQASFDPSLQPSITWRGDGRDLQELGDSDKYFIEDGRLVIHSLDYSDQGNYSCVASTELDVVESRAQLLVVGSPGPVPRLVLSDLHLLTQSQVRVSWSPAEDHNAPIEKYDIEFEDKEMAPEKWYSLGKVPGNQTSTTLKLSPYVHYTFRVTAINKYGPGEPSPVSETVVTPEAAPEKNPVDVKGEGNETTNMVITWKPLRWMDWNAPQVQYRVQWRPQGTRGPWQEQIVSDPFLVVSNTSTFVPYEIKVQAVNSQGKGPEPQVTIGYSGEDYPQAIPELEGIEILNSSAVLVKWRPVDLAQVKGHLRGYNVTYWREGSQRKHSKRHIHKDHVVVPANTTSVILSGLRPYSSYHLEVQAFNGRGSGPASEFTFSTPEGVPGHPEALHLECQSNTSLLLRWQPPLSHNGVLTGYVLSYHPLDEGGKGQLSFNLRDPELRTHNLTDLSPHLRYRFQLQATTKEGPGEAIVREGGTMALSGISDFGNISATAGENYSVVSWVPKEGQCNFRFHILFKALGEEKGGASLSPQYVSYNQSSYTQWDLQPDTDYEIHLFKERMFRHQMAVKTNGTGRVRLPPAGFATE
Kind of test: ELISA, human L1-CAM coated at 2 µg/ml. (ELISA stands for enzyme-linked immunosorbent assay.)
The EC50 is the midpoint of the concentration-response curve. As for B1, the EC50 stood at 0.0288 mg/L. Consider B2, for which the EC50 came out at 0.0282 mg/L.

Turning to B3, the EC50 is 0.05 mg/L. For B4 the value was 0.0197 mg/L. With B5 the figure was 0.0157 mg/L; with B6, 0.0129 mg/L; with B7, 0.012 mg/L. With B8 the figure was 0.0255 mg/L; with B9, 0.0148 mg/L. On to B10, for which the EC50 was 0.0317 mg/L.

As for B11, the EC50 was determined as 0.0136 mg/L. For B12 the value was 0.0335 mg/L; for B13, 0.037 mg/L. With B14 the figure was 0.0396 mg/L; with B15, 0.0112 mg/L. With B16 the figure was 0.0272 mg/L; with B17, 0.0126 mg/L; with B18, 0.024 mg/L. Consider B19, for which the EC50 came to 0.0132 mg/L. For B20 the value was 0.0299 mg/L; for B21, 0.0128 mg/L; for B22, 0.00968 mg/L.

As to B23, the EC50 is 0.0108 mg/L. For B24 the value was 0.0362 mg/L; for B25, 0.0246 mg/L; for B26, 0.0268 mg/L.

Regarding B27, the EC50 came out at 0.0459 mg/L.

B28: the EC50 is 0.0335 mg/L. With B29 the figure was 0.0318 mg/L; with B30, 0.0328 mg/L; with B31, 0.0394 mg/L.
